One block for each molecule: values may come before it.
Tests used:
Test in all cases: ELISA
Fzd5 CRD = Fzd5 CRD (UniProt Q13467); conditions: cited from earlier work
[1] = target: T1, purified hSFRP4 (R & D Systems) (human, UniProt Q6FHJ7 19-346)
T1 sequence (looked up): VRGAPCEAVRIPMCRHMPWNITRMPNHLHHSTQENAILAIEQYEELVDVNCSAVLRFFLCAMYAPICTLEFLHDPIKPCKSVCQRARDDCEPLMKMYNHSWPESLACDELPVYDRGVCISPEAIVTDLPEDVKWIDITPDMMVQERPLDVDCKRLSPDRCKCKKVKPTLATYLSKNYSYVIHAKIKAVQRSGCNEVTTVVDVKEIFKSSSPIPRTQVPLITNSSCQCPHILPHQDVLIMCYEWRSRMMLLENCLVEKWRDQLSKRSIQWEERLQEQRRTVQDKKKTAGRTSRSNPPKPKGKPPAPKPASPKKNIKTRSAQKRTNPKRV

mWnt3a-V5/6xHis = mWnt3a-V5/6xHis (mouse, UniProt P27467 19-352)
Sequence of mWnt3a-V5/6xHis (P27467 19-352): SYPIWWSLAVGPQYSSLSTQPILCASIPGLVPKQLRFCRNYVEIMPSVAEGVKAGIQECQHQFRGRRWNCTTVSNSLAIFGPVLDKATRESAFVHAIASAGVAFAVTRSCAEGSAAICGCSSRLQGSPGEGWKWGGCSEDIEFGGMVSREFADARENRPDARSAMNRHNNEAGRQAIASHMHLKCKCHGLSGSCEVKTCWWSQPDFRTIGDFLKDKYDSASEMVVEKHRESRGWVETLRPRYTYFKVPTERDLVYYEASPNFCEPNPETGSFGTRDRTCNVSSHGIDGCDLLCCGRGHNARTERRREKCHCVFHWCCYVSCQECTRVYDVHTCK

Molecule: Wnt7a (from UniProt O00755)
Kd (Fzd5 CRD): 75.4 nM

Kd [1]: 86.5 nM
B1: rWnt7a V5/6xHis (ligand, UniProt O00755 32-349, looked up)
chain: LGASIICNKIPGLAPRQRAICQSRPDAIIVIGEGSQMGLDECQFQFRNGRWNCSALGERTVFGKELKVGSREAAFTYAIIAAGVAHAITAACTQGNLSDCGCDKEKQGQYHRDEGWKWGGCSADIRYGIGFAKVFVDAREIKQNARTLMNLHNNEAGRKILEENMKLECKCHGVSGSCTTKTCWTTLPQFRELGYVLKDKYNEAVHVEPVRASRNKRPTFLKIKKPLSYRKPMDTDLVYIEKSPNYCEEDPVTGSVGTQGRACNKTAPQASGCDLMCCGRGYNTHQYARVWQCNCKFHWCCYVKCNTCSERTEMYTCK

Kd (mWnt3a-V5/6xHis): 83.7 nM
B2: hFzd5CRD-Fc IgG (Fc fusion, human, UniProt Q13467 27-150, looked up)
chain: ASKAPVCQEITVPMCRGIGYNLTHMPNQFNHDTQDEAGLEVHQFWPLVEIQCSPDLRFFLCSMYTPICLPDYHKPLPPCRSVCERAKAGCSPLMRQYGFAWPERMSCDRLPVLGRDAEVLCMDY
